In paper PMC10786891, “Massively parallel profiling of RNA-targeting CRISPR-Cas13d”:

T1: EsCas13d, nuclease-dead (Eubacterium siraeum, UniProt B0MS50, R295A;H300A;R849A;H854A)
T1 sequence: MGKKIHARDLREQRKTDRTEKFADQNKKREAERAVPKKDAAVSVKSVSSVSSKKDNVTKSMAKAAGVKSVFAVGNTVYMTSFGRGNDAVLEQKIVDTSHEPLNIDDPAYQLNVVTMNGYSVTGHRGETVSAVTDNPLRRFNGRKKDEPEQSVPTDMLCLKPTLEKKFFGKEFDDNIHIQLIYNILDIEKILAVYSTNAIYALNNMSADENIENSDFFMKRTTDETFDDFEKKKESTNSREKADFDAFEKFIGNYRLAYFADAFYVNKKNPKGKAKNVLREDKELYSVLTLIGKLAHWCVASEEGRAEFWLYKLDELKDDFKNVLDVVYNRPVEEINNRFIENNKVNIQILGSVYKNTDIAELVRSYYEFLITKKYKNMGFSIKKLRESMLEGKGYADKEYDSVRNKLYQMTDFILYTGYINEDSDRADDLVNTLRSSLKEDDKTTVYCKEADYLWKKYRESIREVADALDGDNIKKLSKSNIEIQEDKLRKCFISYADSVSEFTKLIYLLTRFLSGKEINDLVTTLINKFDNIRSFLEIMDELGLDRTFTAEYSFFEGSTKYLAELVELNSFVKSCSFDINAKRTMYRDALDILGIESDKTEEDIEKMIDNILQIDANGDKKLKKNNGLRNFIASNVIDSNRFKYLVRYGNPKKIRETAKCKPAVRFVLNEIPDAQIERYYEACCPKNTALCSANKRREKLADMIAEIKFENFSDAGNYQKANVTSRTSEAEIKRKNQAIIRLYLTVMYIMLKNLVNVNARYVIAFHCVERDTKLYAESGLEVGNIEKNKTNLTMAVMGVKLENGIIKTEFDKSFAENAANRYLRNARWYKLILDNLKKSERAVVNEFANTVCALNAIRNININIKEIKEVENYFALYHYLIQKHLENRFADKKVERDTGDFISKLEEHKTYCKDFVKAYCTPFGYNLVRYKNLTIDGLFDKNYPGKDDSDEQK

B1: target 1 MT 5'PFS ACG 3'PFS CUG (mixed)
RNA 1: CACCCGUGCAAAAAUGCAGGGGUCUAAAACUGAGCGGAUAACCUCUCUAUGG
RNA 2: GGGAAUGGAUCCACAUCUACGAAUUCACGCCAUAGAGAGGUUAUCCGCUCACUGAGAUCGGAAGAGCACACGU
B2: target 1 MT 5'PFS GGA 3'PFS GGG (mixed)
RNA 1: CACCCGUGCAAAAAUGCAGGGGUCUAAAACUGAGCGGAUAACCUCUCUAUGG
RNA 2: GGGAAUGGAUCCACAUCUACGAAUUCGGACCAUAGAGAGGUUAUCCGCUCAGGGAGAUCGGAAGAGCACACGU
B3: target 1 MT 5'PFS GAA 3'PFS UGU (mixed)
RNA 1: CACCCGUGCAAAAAUGCAGGGGUCUAAAACUGAGCGGAUAACCUCUCUAUGG
RNA 2: GGGAAUGGAUCCACAUCUACGAAUUCGAACCAUAGAGAGGUUAUCCGCUCAUGUAGAUCGGAAGAGCACACGU
B4: target 1 MT 5'PFS UAG 3'PFS CGA (mixed)
RNA 1: CACCCGUGCAAAAAUGCAGGGGUCUAAAACUGAGCGGAUAACCUCUCUAUGG
RNA 2: GGGAAUGGAUCCACAUCUACGAAUUCUAGCCAUAGAGAGGUUAUCCGCUCACGAAGAUCGGAAGAGCACACGU
B5: target 1 MT 5'PFS CUG 3'PFS UAC (mixed)
RNA 1: CACCCGUGCAAAAAUGCAGGGGUCUAAAACUGAGCGGAUAACCUCUCUAUGG
RNA 2: GGGAAUGGAUCCACAUCUACGAAUUCCUGCCAUAGAGAGGUUAUCCGCUCAUACAGAUCGGAAGAGCACACGU
B6: target 1 MT 5'PFS UCA 3'PFS UUA (mixed)
RNA 1: CACCCGUGCAAAAAUGCAGGGGUCUAAAACUGAGCGGAUAACCUCUCUAUGG
RNA 2: GGGAAUGGAUCCACAUCUACGAAUUCUCACCAUAGAGAGGUUAUCCGCUCAUUAAGAUCGGAAGAGCACACGU
B7: target 1 MT 5'PFS GUG 3'PFS CUU (mixed)
RNA 1: CACCCGUGCAAAAAUGCAGGGGUCUAAAACUGAGCGGAUAACCUCUCUAUGG
RNA 2: GGGAAUGGAUCCACAUCUACGAAUUCGUGCCAUAGAGAGGUUAUCCGCUCACUUAGAUCGGAAGAGCACACGU
B8: target 1 MT 5'PFS UAG 3'PFS CGU (mixed)
RNA 1: CACCCGUGCAAAAAUGCAGGGGUCUAAAACUGAGCGGAUAACCUCUCUAUGG
RNA 2: GGGAAUGGAUCCACAUCUACGAAUUCUAGCCAUAGAGAGGUUAUCCGCUCACGUAGAUCGGAAGAGCACACGU
B9: target 1 C4A (mixed)
RNA 1: CACCCGUGCAAAAAUGCAGGGGUCUAAAACUGAGCGGAUAACCUCUCUAUGG
RNA 2: GGGAAUGGAUCCACAUCUACGAAUUCGUACCAUAGAGAGGUUAUCCGAUCACCGAGAUCGGAAGAGCACACGU
B10: target 1 MT 5'PFS GCG 3'PFS UGA (mixed)
RNA 1: CACCCGUGCAAAAAUGCAGGGGUCUAAAACUGAGCGGAUAACCUCUCUAUGG
RNA 2: GGGAAUGGAUCCACAUCUACGAAUUCGCGCCAUAGAGAGGUUAUCCGCUCAUGAAGAUCGGAAGAGCACACGU
B11: target 1 MT 5'PFS UAG 3'PFS CGG (mixed)
RNA 1: CACCCGUGCAAAAAUGCAGGGGUCUAAAACUGAGCGGAUAACCUCUCUAUGG
RNA 2: GGGAAUGGAUCCACAUCUACGAAUUCUAGCCAUAGAGAGGUUAUCCGCUCACGGAGAUCGGAAGAGCACACGU
B12: target 1 MT 5'PFS GUG 3'PFS CUA (mixed)
RNA 1: CACCCGUGCAAAAAUGCAGGGGUCUAAAACUGAGCGGAUAACCUCUCUAUGG
RNA 2: GGGAAUGGAUCCACAUCUACGAAUUCGUGCCAUAGAGAGGUUAUCCGCUCACUAAGAUCGGAAGAGCACACGU
B13: target 1 MT 5'PFS GGC 3'PFS UUA (mixed)
RNA 1: CACCCGUGCAAAAAUGCAGGGGUCUAAAACUGAGCGGAUAACCUCUCUAUGG
RNA 2: GGGAAUGGAUCCACAUCUACGAAUUCGGCCCAUAGAGAGGUUAUCCGCUCAUUAAGAUCGGAAGAGCACACGU
B14: target 1 MT 5'PFS GAA 3'PFS UGC (mixed)
RNA 1: CACCCGUGCAAAAAUGCAGGGGUCUAAAACUGAGCGGAUAACCUCUCUAUGG
RNA 2: GGGAAUGGAUCCACAUCUACGAAUUCGAACCAUAGAGAGGUUAUCCGCUCAUGCAGAUCGGAAGAGCACACGU
B15: target 1 MT 5'PFS GAA 3'PFS UGA (mixed)
RNA 1: CACCCGUGCAAAAAUGCAGGGGUCUAAAACUGAGCGGAUAACCUCUCUAUGG
RNA 2: GGGAAUGGAUCCACAUCUACGAAUUCGAACCAUAGAGAGGUUAUCCGCUCAUGAAGAUCGGAAGAGCACACGU
B16: target 1 MT 5'PFS GGA 3'PFS AGC (mixed)
RNA 1: CACCCGUGCAAAAAUGCAGGGGUCUAAAACUGAGCGGAUAACCUCUCUAUGG
RNA 2: GGGAAUGGAUCCACAUCUACGAAUUCGGACCAUAGAGAGGUUAUCCGCUCAAGCAGAUCGGAAGAGCACACGU
B17: target 1 MT 5'PFS GUG 3'PFS CUC (mixed)
RNA 1: CACCCGUGCAAAAAUGCAGGGGUCUAAAACUGAGCGGAUAACCUCUCUAUGG
RNA 2: GGGAAUGGAUCCACAUCUACGAAUUCGUGCCAUAGAGAGGUUAUCCGCUCACUCAGAUCGGAAGAGCACACGU
B18: target 1 MT 5'PFS GAA 3'PFS AAC (mixed)
RNA 1: CACCCGUGCAAAAAUGCAGGGGUCUAAAACUGAGCGGAUAACCUCUCUAUGG
RNA 2: GGGAAUGGAUCCACAUCUACGAAUUCGAACCAUAGAGAGGUUAUCCGCUCAAACAGAUCGGAAGAGCACACGU
B19: target 1 C21U,C22A (mixed)
RNA 1: CACCCGUGCAAAAAUGCAGGGGUCUAAAACUGAGCGGAUAACCUCUCUAUGG
RNA 2: GGGAAUGGAUCCACAUCUACGAAUUCGUAAUAUAGAGAGGUUAUCCGCUCACCGAGAUCGGAAGAGCACACGU
B20: target 1 MT 5'PFS UCA 3'PFS UUG (mixed)
RNA 1: CACCCGUGCAAAAAUGCAGGGGUCUAAAACUGAGCGGAUAACCUCUCUAUGG
RNA 2: GGGAAUGGAUCCACAUCUACGAAUUCUCACCAUAGAGAGGUUAUCCGCUCAUUGAGAUCGGAAGAGCACACGU
B21: target 1 MT 5'PFS GCG 3'PFS UGC (mixed)
RNA 1: CACCCGUGCAAAAAUGCAGGGGUCUAAAACUGAGCGGAUAACCUCUCUAUGG
RNA 2: GGGAAUGGAUCCACAUCUACGAAUUCGCGCCAUAGAGAGGUUAUCCGCUCAUGCAGAUCGGAAGAGCACACGU
B22: target 1 MT 5'PFS GGA 3'PFS GGU (mixed)
RNA 1: CACCCGUGCAAAAAUGCAGGGGUCUAAAACUGAGCGGAUAACCUCUCUAUGG
RNA 2: GGGAAUGGAUCCACAUCUACGAAUUCGGACCAUAGAGAGGUUAUCCGCUCAGGUAGAUCGGAAGAGCACACGU
B23: target 1 MT 5'PFS AAU 3'PFS AAU (mixed)
RNA 1: CACCCGUGCAAAAAUGCAGGGGUCUAAAACUGAGCGGAUAACCUCUCUAUGG
RNA 2: GGGAAUGGAUCCACAUCUACGAAUUCAAUCCAUAGAGAGGUUAUCCGCUCAAAUAGAUCGGAAGAGCACACGU
B24: target 1 MT 5'PFS GGA 3'PFS AGU (mixed)
RNA 1: CACCCGUGCAAAAAUGCAGGGGUCUAAAACUGAGCGGAUAACCUCUCUAUGG
RNA 2: GGGAAUGGAUCCACAUCUACGAAUUCGGACCAUAGAGAGGUUAUCCGCUCAAGUAGAUCGGAAGAGCACACGU

What follows are binders tested against T1, EsCas13d, nuclease-dead (assay: crRNA (strand 1, pre-loaded); Mg2+; 40 mM Tris-HCl pH 7.5, 150 mM NaCl, 6 mM MgCl2, 1 mM DTT, 0.1% Tween-20, 0.2 mg/ml BSA; 25 C; 10 min per concentration, then washed). Conditions: tags: His6-TwinStrep-SUMO cleaved; N-terminal SNAP kept (SNAP-Surface 488); label: 3' end held by stalled T7 RNA polymerase.
For B1, the Kd was 53.5 ± 23 nM. B2 gave a Kd of 54 ± 18 nM. B3 was tested, and the Kd was 56.5 ± 14.5 nM. B4 gave a Kd of 27 ± 6 nM. With B5 the Kd was 4.1 ± 0.7 nM. B6 was tested, and the Kd was 10.8 ± 2.25 nM. Binder B7 has a Kd of 10.2 ± 0.9 nM. For B8, the Kd was 63.5 ± 28 nM. Work on B9 yielded a Kd of 3.8 ± 0.4 nM. Work on B10 yielded a Kd of 20.8 ± 7.75 nM. B11 showed a Kd of 55 ± 10 nM. Work on B12 yielded a Kd of 16.2 ± 2 nM. For B13, the Kd was 11.7 ± 2.55 nM. B14 showed a Kd of 10.8 ± 2.05 nM. Binder B15 has a Kd of 30.5 ± 9 nM. Binder B16 has a Kd of 15.6 ± 2.9 nM. With B17 the Kd was 19.4 ± 2.75 nM. B18 showed a Kd of about 47 nM. For B19, the Kd was 28.9 ± 2 nM. B20 showed a Kd of 37 ± 9.5 nM. B21 showed a Kd of 22.5 ± 6.5 nM. B22 showed a Kd of 45 ± 18 nM. Work on B23 yielded a Kd of 38 ± 17 nM. For B24, the Kd was 22 ± 3.7 nM.
